Publication PMC12800425, “De novo cysteine biosynthesis in Pseudomonas aeruginosa: Characterization of the two main cysteine synthase isoforms” (iScience, 2025)

Legend:
[1] = target: T1, PA0932 (PaCysM, cysteine synthase B) (Pseudomonas aeruginosa, UniProt Q9I526); test: UV-vis absorption ([…] nm), near-UV circular dichroism, fluorescence; assay type: binding
T1 construct: gene cysM; recombinant, N-terminal His-tag with TEV cleavage site; homodimer
T1 sequence (Q9I526 1-299): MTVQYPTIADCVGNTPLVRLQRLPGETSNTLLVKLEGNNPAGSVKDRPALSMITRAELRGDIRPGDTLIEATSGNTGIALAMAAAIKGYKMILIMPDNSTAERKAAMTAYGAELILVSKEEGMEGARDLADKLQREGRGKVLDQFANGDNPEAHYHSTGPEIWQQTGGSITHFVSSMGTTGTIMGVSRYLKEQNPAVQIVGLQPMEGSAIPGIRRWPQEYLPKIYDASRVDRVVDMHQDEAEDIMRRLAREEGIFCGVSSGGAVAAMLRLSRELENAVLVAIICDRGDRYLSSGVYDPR

[2] = target: T2, PA2709 (PaCysK, cysteine synthase A) (Pseudomonas aeruginosa, UniProt Q9I0D3); test: as above; assay type: binding
T2 construct: gene cysK; recombinant, N-terminal His-tag with TEV cleavage site; homodimer
T2 sequence (Q9I0D3 1-324): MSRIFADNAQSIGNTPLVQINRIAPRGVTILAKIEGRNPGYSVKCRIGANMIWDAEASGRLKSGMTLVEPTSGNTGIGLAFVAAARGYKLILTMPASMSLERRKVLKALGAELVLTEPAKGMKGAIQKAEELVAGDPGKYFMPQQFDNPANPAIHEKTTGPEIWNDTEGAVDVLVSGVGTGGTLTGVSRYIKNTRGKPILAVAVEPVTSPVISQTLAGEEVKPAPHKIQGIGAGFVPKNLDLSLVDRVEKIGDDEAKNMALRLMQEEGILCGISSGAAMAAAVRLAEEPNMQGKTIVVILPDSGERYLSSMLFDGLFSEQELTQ

[3] = target: T1, PA0932 (PaCysM, cysteine synthase B); test: ninhydrin steady-state kinetics, global fit (Km […]); substrate inhibition Ki; assay type: biochemical
[4] = substrate: CC(=O)OC[C@H](N)C(=O)O; test: UV-vis absorption of PLP intermediates; steady-state kinetics, ninhydrin assay with thiosulfate (Km); assay type: biochemical, Pseudomonas aeruginosa; conditions: pyridoxal […]'-phosphate (PLP) active site; forms alpha-aminoacrylate intermediate with PLP; pH 7.0; 25.0 °C
[5] = target: the molecule itself; test: SEC-MALS; Agilent GPC/SEC, AdvanceBio SEC column (300 Å), dual-angle light-scattering detector, BSA as calibrant; protein loaded at 1 mg/mL in buffer H (100 mM HEPES, pH 7.0), 20 °C, 1 mL/min
[6] = substrate: CC(=O)OC[C@H](N)C(=O)O; test: UV-vis absorption of PLP intermediates; steady-state kinetics with bisulfide electrode (Km); assay type: biochemical, Pseudomonas aeruginosa; conditions: pyridoxal […]'-phosphate (PLP) active site; forms alpha-aminoacrylate intermediate with PLP; pH 7.0; 25.0 °C

## Cc1ncc(COP(=O)(O)O)c(C=O)c1O [PLP, pyridoxal 5′-phosphate]
[1]
  UV-vis absorption (413 nm), near-UV circular dichroism, fluorescence: absorption of the PLP cofactor bound as an internal aldimine to the catalytic lysine
[2]
  UV-vis absorption (411 nm), near-UV circular dichroism, fluorescence: absorption of the PLP cofactor bound as an internal aldimine to the catalytic lysine

## O=S(O)(O)=S [thiosulfate]
[3]
  Ki: 970 ± 830 µM

B1: PA0932 (PaCysM, cysteine synthase B) (Pseudomonas aeruginosa PAO1) (protein)
chain: T1 sequence (Q9I526 1-299)
notes: recombinant, N-terminal His-tag with TEV cleavage site; homodimer
[4]
  Km: 2700 ± 600 µM
  kcat: 209 ± 25 s⁻¹
  kcat/Km: 79000 ± 20000 M⁻¹ s⁻¹

B2: Cysteine synthase B (PA0932, PaCysM) from Pseudomonas aeruginosa (enzyme, Pseudomonas aeruginosa PAO1, UniProt Q9I526 1-299, looked up)
chain: T1 sequence (Q9I526 1-299)
modifications: PLP cofactor bound as an internal aldimine to the catalytic lysine (Lys45, based on sequence alignments)
notes: Cysteine synthase B (CysM, PA0932) of P. aeruginosa PAO1; gene optimised for E. coli, synthesised and cloned between NdeI and BamHI into pET28a-TEV; calculated mass for a dimer 65 kDa; also called OASS-B; S-sulfocysteine synthase; not shown: His6, N-terminal, cleaved
[5]
  stoichiometry N: 2

B3: PA2709 (PaCysK, cysteine synthase A) (Pseudomonas aeruginosa PAO1) (protein)
chain: T2 sequence (Q9I0D3 1-324)
notes: as for B1
[6]
  Km: 1100 ± 100 µM
  kcat: 102 ± 3 s⁻¹
  kcat/Km: 90000 ± 9000 M⁻¹ s⁻¹

B4: Cysteine synthase A (PA2709, PaCysK) from Pseudomonas aeruginosa (enzyme, Pseudomonas aeruginosa PAO1, UniProt Q9I0D3 1-324, looked up)
chain: T2 sequence (Q9I0D3 1-324)
modifications: PLP cofactor bound as an internal aldimine to the catalytic lysine (Lys44, based on sequence alignments)
notes: Cysteine synthase A (CysK, PA2709) of P. aeruginosa PAO1; gene optimised for E. coli, synthesised and cloned between NdeI and BamHI into pET28a-TEV; calculated mass for a dimer 69 kDa; also called O-acetylserine sulfhydrylase; OASS-A; not shown: His6, N-terminal, cleaved
[5]
  stoichiometry N: 2
